Assay results published in PMC4381056.

Biological target: T1, MBD3-GFP (methyl-CpG-binding domain protein 3 fused to GFP), O95983
T1 chain: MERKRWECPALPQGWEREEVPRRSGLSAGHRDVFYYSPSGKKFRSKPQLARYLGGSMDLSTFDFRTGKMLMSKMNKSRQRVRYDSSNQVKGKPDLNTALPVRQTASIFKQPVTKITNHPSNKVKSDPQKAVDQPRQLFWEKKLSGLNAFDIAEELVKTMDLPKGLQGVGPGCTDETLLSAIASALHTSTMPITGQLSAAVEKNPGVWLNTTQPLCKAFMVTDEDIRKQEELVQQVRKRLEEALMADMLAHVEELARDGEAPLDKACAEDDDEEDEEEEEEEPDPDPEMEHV
Assay: photon counting histogram
Settings: remark: other sources report otherwise

B1: MBD3-GFP (methyl-CpG-binding domain protein 3 fused to GFP), O95983 1-291 (natural protein)
chain: T1 chain
dimer percentage (G1-phase): 84% | dimer percentage (G2-phase): 16% | dimer percentage (S-phase): 48%
